Reference: US20080124811A1 (AbbVie / Abbott, published 2008)

What was measured:
[1] = target: T1, human brain natriuretic peptide, cyclic BNP (1-32c) (human, cyclic: ring closed by a disulfide bond between the two cysteine residues; biotinylated or acridinium-labelled in some assays); test: scFv on yeast; method not described; printed unit µM read as pM (26 pM is said to be 10-fold lower)
T1 construct: also called hBNP; hBNP 1-32

[2] = target: T1, human brain natriuretic peptide, cyclic …; test: yeast display off-rate assay, flow cytometry; t1/2 = ln 2/koff
[3] = target: T1, human brain natriuretic peptide, cyclic …; test: off-rate assay on yeast-displayed scFv by flow cytometry: biotinylated cyclic BNP (1-32c), chase with unlabelled BNP 1-32c, SA:PE, first order decay fit
[4] = target: T1, human brain natriuretic peptide, cyclic …; test: yeast display off-rate assay, flow cytometry, biotinylated cyclic BNP chased with unlabelled BNP, first order decay fit
[5] = target: T1, human brain natriuretic peptide, cyclic …; test: off-rate assay on yeast-displayed scFv by flow cytometry: biotinylated cyclic BNP (1-32c), chase with unlabelled BNP 1-32c, SA:PE; m2 of the first order decay fit (error 0.00087362, R 0.98912), time axis in sec

Kd [1]: ~0.26 nM
half-life (t1/2) [2]: 2.4 min
koff [3]: 0.0048 s⁻¹
koff [4]: 0.0047 s⁻¹
koff [5]: 0.00474 s⁻¹
B1: 3-631-436 scFv, unmutated, on yeast (scFv)
scFv: QVQLQQPGAELVRPGASVKLSCKASGYTFTSYWMNWVKQRPEQGLEWIGRIDPYDSETHYNQKFKDKAILTVDKSSSTAFVQLTSLTSEDSAVYYCVSDGYWGAGTTVTVSSGPAKELTPLKEAKVSDVVMTQTPLTLSVTTGQPASISCKSSQSLLDSDGKTYLNWLFQRPGESPKLLIYVVSKLESGVPDRFTGSGSGTDFTLKISRVEAEDLGVYYCLQATHFPWTFGGGTKLEIKRAAALESRGPFEGKPIPNPLLGLDSTRTGHHHHHH
